Molecular target: T1, human TIM-3 (T Cell Immunoglobulin and Mucin Domain-3) (human, UniProt Q8TDQ0 22-301)
T1 construct: The occupancy sentence names neither the receptor nor its form; also called HAVCR2
T1 sequence: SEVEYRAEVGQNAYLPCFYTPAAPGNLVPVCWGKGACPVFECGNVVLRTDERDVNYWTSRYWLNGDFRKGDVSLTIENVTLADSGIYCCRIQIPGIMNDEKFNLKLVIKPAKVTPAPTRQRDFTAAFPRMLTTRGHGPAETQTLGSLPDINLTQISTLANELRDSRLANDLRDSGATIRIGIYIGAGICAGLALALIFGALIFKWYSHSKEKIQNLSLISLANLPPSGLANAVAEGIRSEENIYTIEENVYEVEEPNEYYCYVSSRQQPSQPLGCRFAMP
Assay: receptor occupancy in subjects of a corresponding Phase 1 study (method not described)

binding result: binds
B1: cobolimab (antibody, human IgG4 S228P, kappa, V domains shown)
VH: EVQLLESGGGLVQPGGSLRLSCAAASGFTFSSYDMSWVRQAPGKGLDWVSTISGGGTYTYYQDSVKGRFTISRDNSKNTLYLQMNSLRAEDTAVYYCASMDYWGQGTTVTVSS
VL: DIQMTQSPSSLSASVGDRVTITCRASQSIRRYLNWYHQKPGKAPKLLIYGASTLQSGVPSRFSGSGSGTDFTLTISSLQPEDFAVYYCQQSHSAPLTFGGGTKVEIKR
notes: also called Anti-TIM3
